# Literature values in article PMC2288786 (BMC Structural Biology, 2008).
# Molecular target: CaM
# Conditions: previously observed for full-length MBP; ref [18],[21]
# From the text: Background The myelin sheath is a multilamellar membrane structure wrapped around the axon, enabling the saltatory conduction of nerve impulses in vertebrates. […] In this study, we focus on a 19-mer synthetic peptide from the predicted calmodulin-binding segment near the C-terminus of human myelin basic protein. […] The binding of the ...
molecule,measurement,value
"full-length myelin basic protein: full-length myelin basic protein of earlier studies (protein, UniProt P02686 1-304, looked up, full-length, full-length myelin basic protein of earlier studies) MGNHAGKRELNAEKASTNSETNRGESEKKRNLGELSRTTSEDNEVFGEADANQNNGTSSQDTAVTDSKRTADPKNAWQDAHPADPGSRPHLIRLFSRDAPGREDNTFKDRPSESDELQTIQEDSAATSESLDVMASQKRPSQRHGSKYLATASTMDHARHGFLPRHRDTGILDSIGRFFGGDRGAPKRGSGKDSHHPARTAHYGSLPQKSHGRTQDENPVVHFFKNIVTPRTPPPSQGKGRGLSLSRFSWGAEGQRPGFGYGGRASDYKSAHKGFKGVDAQGTLSKIFKLGGRDSRSGSPMARR",Kd in words,low μM range
